Experimental data published in PMC11148769 (Cell Reports Medicine, 2024).

Biological target: T1, BA.2.12.1 S trimer (SARS-CoV-2, Omicron BA.2.12.1, strain)
T1 construct: also called BA.2.12.1 spike
Test: cryo-EM structure
Settings: both partners purified

B1: XBB-4 Fab (Fab, V domains shown)
VH: EVQLVQSGGGLVKPGGSLRLSCAASGFSFTNAWMNWVRQAPGKGLEWVGRIKSKADGGTTDYAAPVKGKFTISRDDSKNTLYLQMNSLKTEDTAIYYCTSDVYDFSTGFGQRDDFDYWGQGTLVTVSS
VL: DIVMTQSPSSLSASVGDRVTITCRASQSISYFLNWYQQKPGKAPKLLISAASSLQSGVPSRFSGSGSGTDFTLTISSLQPEDFATYYCQQSYSSLITFGGGTKVEIK
stoichiometry N: 3 Fabs per S trimer
